To fix the notation:
B1: hMQ22.101j/h (antibody, V domains shown)
VH: QVQLVQSGAEVKKPGASVKVSCKASGYTFTNYGMHWVRQAPGQGLEWMGWINTYSGEATYAQKFQGRVTMTRDTSISTAYMELSRLRSDDTAVYYCLRGYTYQSFDEGGDYWGQGTLVTVSS
VL: DVVMTQSPLSLPVTLGQPASISCRSSQSLVASDGKTYLNWFQQRPGQSPRRLIYLVSKLDSGVPDRFSGSGSGTDFTLKISRVEAEDVGVYYCWQGTHFPYTFGQGTKLEIK
notes: also called VL CDR1 aspartate-mutated antibody (DS site to AS)
B2: hMQ22.101j/i (antibody, V domains shown)
VH: B1 VH
VL: B1 VL with A31E
notes: also called VL CDR1 aspartate-mutated antibody (DS site to ES); heavy chain hVH22.101j with light chain hVL22.101i
B3: hMQ22.101j/LC17 (antibody, V domains shown)
VH: B1 VH
VL: B1 VL with V30L, A31D, S32T
notes: also called isomerization mutant; heavy chain hVH22.101j with light chain hVL22.101LC17
B4: hMQ22.101j/LC42 (antibody, V domains shown)
VH: B1 VH
VL: B1 VL with V30L, A31D, S32N
notes: also called isomerization mutant; heavy chain hVH22.101j with light chain hVL22.101LC42
B5: hMQ22.101HC9/LC42 (antibody, V domains shown)
VH: B1 VH with Q1R, V2I, A61V, Q62D, K63D
VL: B1 VL with V30L, A31D, S32N
notes: also called isomerization mutant; heavy chain hVH22.101HC9 with light chain hVL22.101LC42
B6: hMQ22.101HC7/LC17 (antibody, V domains shown)
VH: B1 VH with A16S, M70I, R72A, T74E, I76T, R85S, D89E
VL: B1 VL with V30L, A31D, S32T
notes: also called isomerization mutant; heavy chain hVH22.101HC7 with light chain hVL22.101LC17
B7: hMQ22.101j/LC21 (antibody, V domains shown)
VH: B1 VH
VL: B1 VL with V30L, A31D, G34A
notes: also called isomerization mutant; heavy chain hVH22.101j with light chain hVL22.101LC21
B8: hMQ22.101HC7/LC27 (antibody, V domains shown)
VH: B1 VH with A16S, M70I, R72A, T74E, I76T, R85S, D89E
VL: B1 VL with V30L, A31D, S32T, G34A
notes: also called isomerization mutant; heavy chain hVH22.101HC7 with light chain hVL22.101LC27
B9: hMQ22.101HC8/LC42 (antibody, V domains shown)
VH: B1 VH with A16S, A61V, Q62D, K63D, M70I, R72A, T74E, I76T, R85S, D89E
VL: B1 VL with V30L, A31D, S32N
notes: also called isomerization mutant; heavy chain hVH22.101HC8 with light chain hVL22.101LC42
B10: hMQ22.101HC8/LC17 (antibody, V domains shown)
VH: B1 VH with A16S, A61V, Q62D, K63D, M70I, R72A, T74E, I76T, R85S, D89E
VL: B1 VL with V30L, A31D, S32T
notes: also called isomerization mutant; heavy chain hVH22.101HC8 with light chain hVL22.101LC17
B11: hMQ22.101HC7/LC41 (antibody, V domains shown)
VH: B1 VH with A16S, M70I, R72A, T74E, I76T, R85S, D89E
VL: B1 VL with V30L, A31D, S32A
notes: also called isomerization mutant; heavy chain hVH22.101HC7 with light chain hVL22.101LC41
B12: hMQ22.101j/LC41 (antibody, V domains shown)
VH: B1 VH
VL: B1 VL with V30L, A31D, S32A
notes: also called isomerization mutant; heavy chain hVH22.101j with light chain hVL22.101LC41
B13: hMQ22.101HC8/LC41 (antibody, V domains shown)
VH: B1 VH with A16S, A61V, Q62D, K63D, M70I, R72A, T74E, I76T, R85S, D89E
VL: B1 VL with V30L, A31D, S32A
notes: also called isomerization mutant; heavy chain hVH22.101HC8 with light chain hVL22.101LC41
B14: hMQ22.101HC9/LC17 (antibody, V domains shown)
VH: B1 VH with Q1R, V2I, A61V, Q62D, K63D
VL: B1 VL with V30L, A31D, S32T
notes: also called isomerization mutant; heavy chain hVH22.101HC9 with light chain hVL22.101LC17
B15: hMQ22.101j/LC27 (antibody, V domains shown)
VH: B1 VH
VL: B1 VL with V30L, A31D, S32T, G34A
notes: also called isomerization mutant; heavy chain hVH22.101j with light chain hVL22.101LC27
B16: hMQ22.101HC8/LC21 (antibody, V domains shown)
VH: B1 VH with A16S, A61V, Q62D, K63D, M70I, R72A, T74E, I76T, R85S, D89E
VL: B1 VL with V30L, A31D, G34A
notes: also called isomerization mutant; heavy chain hVH22.101HC8 with light chain hVL22.101LC21
B17: hMQ22.101HC8/LC27 (antibody, V domains shown)
VH: B1 VH with A16S, A61V, Q62D, K63D, M70I, R72A, T74E, I76T, R85S, D89E
VL: B1 VL with V30L, A31D, S32T, G34A
notes: also called isomerization mutant; heavy chain hVH22.101HC8 with light chain hVL22.101LC27
B18: hMQ22.101HC7/LC21 (antibody, V domains shown)
VH: B1 VH with A16S, M70I, R72A, T74E, I76T, R85S, D89E
VL: B1 VL with V30L, A31D, G34A
notes: also called isomerization mutant; heavy chain hVH22.101HC7 with light chain hVL22.101LC21
B19: hMQ22.101HC7/LC42 (antibody, V domains shown)
VH: B1 VH with A16S, M70I, R72A, T74E, I76T, R85S, D89E
VL: B1 VL with V30L, A31D, S32N
notes: also called isomerization mutant; heavy chain hVH22.101HC7 with light chain hVL22.101LC42
B20: hMQ22.101HC9/LC21 (antibody, V domains shown)
VH: B1 VH with Q1R, V2I, A61V, Q62D, K63D
VL: B1 VL with V30L, A31D, G34A
notes: also called isomerization mutant; heavy chain hVH22.101HC9 with light chain hVL22.101LC21
B21: hMQ22.101HC9/LC41 (antibody, V domains shown)
VH: B1 VH with Q1R, V2I, A61V, Q62D, K63D
VL: B1 VL with V30L, A31D, S32A
notes: also called isomerization mutant; heavy chain hVH22.101HC9 with light chain hVL22.101LC41
B22: hMQ22.101HC9/LC27 (antibody, V domains shown)
VH: B1 VH with Q1R, V2I, A61V, Q62D, K63D
VL: B1 VL with V30L, A31D, S32T, G34A
notes: also called isomerization mutant; heavy chain hVH22.101HC9 with light chain hVL22.101LC27
B23: hMQ22.101f/LC41 (antibody, V domains shown)
VH: B1 VH with Q1R, V2I
VL: B1 VL with V30L, A31D, S32A
notes: also called development candidate; isomerization mutant
B24: hMQ22.101f/LC42 (antibody, V domains shown)
VH: B1 VH with Q1R, V2I
VL: B1 VL with V30L, A31D, S32N
notes: also called isomerization mutant; heavy chain hVH22.101f with light chain hVL22.101LC42
B25: hMQ22.101f/LC17 (antibody, V domains shown)
VH: B1 VH with Q1R, V2I
VL: B1 VL with V30L, A31D, S32T
notes: also called isomerization mutant; heavy chain hVH22.101f with light chain hVL22.101LC17
B26: hMQ22.101f/LC27 (antibody, V domains shown)
VH: B1 VH with Q1R, V2I
VL: B1 VL with V30L, A31D, S32T, G34A
notes: also called isomerization mutant; heavy chain hVH22.101f with light chain hVL22.101LC27

Where a chain is given by its changes, count along the chain named. Square brackets hold non-standard residues; d marks the D form. Ends that are not written are not given here. Cit = NC(=O)NCCC[C@H](N)C(=O)O

The first test addresses T1, citrullinated histone 2A-derived peptide (SEQ ID NO: 18), C-terminal biotin (human).
T1 construct: Captured by its biotin on NeutrAvidin plates (ELISA) or streptavidin biosensors (Octet); also called histone-derived peptide; citrullinated H2A-derived peptide
T1 peptide: SG[Cit]GKQGGKARA-biotin
The test can be described thus: CMC ELISA, biotinylated peptide on NeutrAvidin-coated plate, anti-human-HRP, OD 450 nm. On the procedure:
(§1) hMQ22.101j/e samples from week 0, 2, 4, 6 and 8, and hMQ22.101f/g samples from week 0, 3 and 6 were subjected to an in house-validated CMC ELISA. 96-well ELISA plates were coated with NeutrAvidin™ ([…]) by overnight incubation at 4° C. Wells were washed 5 times with PBS-Tween® (polysorbate) 20 (PBS-T) and blocked by a 2 hour incubation with PBS-T+1% Bovine serum albumin (BSA) at room temperature (RT). After 5 more washes with PBS-T, wells were incubated for 1 hour at RT with a histone-derived peptide (SEQ ID NO 18: SGXGKQGGKARA), containing a citrulline (X) at position 3 and a C-terminal biotin (40 ng/well) in PBS-T+0.2% BSA. After another 5 washes with PBS-T, a calibration curve made from a reference lot of hMQ22.101j/e or hMQ22.101f/g by adding to the wells starting at […] and further diluted at a 1:1 ratio until reaching a concentration of 0.66 ng/ml in PBS-T+0.2% BSA. Spiked quality control (QC) samples made from the same reference lot hMQ22.101j/e or hMQ22.101f/g at higher (HQC, 250 ng/ml), middle (MQC, 50 ng/ml), lower (LQC 3.75 ng/ml) and lower limit quality control (LLQC, 1.25 ng/ml) were diluted in PBS-T+0.2% BSA and added to the plate as well. These QC samples were used in order to validate the ELISA results.
(§2) Finally, accelerated stability samples that had been incubated for 0, 2, 3, 4, 6 and 8 weeks at 37° C. were added to the same plate at a concentration of 40 ng/ml in PBS-T+0.2% BSA and incubated for 2 hours at RT. Wells were washed 5 times with PBS-T and incubated with rabbit anti-human-HRP antibody (1:12.000 in PBS-T+0.2% BSA) for 1 hour at RT followed by 3 washes with PBS-T and 3 washes with PBS. Wells were incubated 10 min with TMB substrate before stopping the reaction with 2 M H₂SO₄ after which the optical density was measured at wavelength of 450 nm. A sigmoidal calibration curve was plotted and fitted using the values from the serial diluted reference antibody. Concentrations of the QC samples and accelerated stability samples were recalculated using the equation from the sigmoidal fitted curve.
For orientation: ELISA stands for enzyme-linked immunosorbent assay.
For B1, the binding result is given as “binds”.

In the case of B2, the binding result was “binds”.

A further test deals with T1, citrullinated histone 2A-derived …. The test can be described thus: Octet RED96 off-rate screen, biotinylated peptide on streptavidin biosensors, antibody 72 nM, 30 C. On the procedure:
(§3) Off-rate screening of the isomerization-mutated antibodies was performed on an Octet® RED96 (biomolecule detection system) instrument (Pall ForteBio). All measurements were performed at 30° C. Streptavidin (SA) biosensors were first washed for 50 sec with PBS. 1 μg/ml N-terminal histone 2A (SEQ ID NO: 18) and histone 4 (SEQ ID NO: 20) peptides, containing both a citrulline at position 3 and a biotin at the C-terminus, were immobilized on SA biosensors for 200 sec, washed with PBS for 50 sec and excess reactive streptavidin molecules blocked with EZ-Link™ biocytin for 200 sec. After two additional 50 sec wash steps in PBS, antibodies at a concentration of 72 nM diluted in PBS were allowed to bind to the biosensors for 200 sec. Sensors were subsequently placed in PBS for 4000 sec in order to measure their dissociation rates.
(§4) Background signals generated with non-coated biosensors, which have been exposed to the various antibodies as well as signals from coated biosensors that have not been exposed to the various antibodies, have been subtracted before dissociation curves for each antibody were plotted. Both histone 2A and histone 4 dissociation rates constants (kdis×E-07 (1/s)) for each antibody were calculated applying a 1:1 interaction model (fitting local, full) using ForteBio data analysis software 8.1.
In general terms: BLI is a label-free optical method that tracks binding on a fibre tip over time.
With B3, the binding result was “binds”.

As for B4, the binding result was “binds”.

On to B5, for which the binding result is recorded as “binds”.

For the molecule B6, the binding result is reported as “binds”.

For the molecule B7, the binding result is recorded as “binds”.

In the case of B8, the binding result is listed as “binds”.

For the molecule B9, the binding result was “binds”.

Consider B10, for which the binding result is “binds”.

Turning to B11, the binding result is listed as “binds”.

For B12, the binding result is given as “binds”.

In the case of B13, the binding result is “binds”.

As for B14, the binding result was “binds”.

As to B15, the binding result is recorded as “binds”.

Take B16: the binding result is “binds”.

Turning to B17, the binding result is “binds”.

With B18, the binding result is “binds”.

For B19, the binding result was “binds”.

As for B20, the binding result is given as “binds”.

As to B21, the binding result is reported as “binds”.

In the case of B22, the binding result is given as “binds”.

A further test has as its target T2, citrullinated histone 4-derived peptide (SEQ ID NO: 20), C-terminal biotin (human, citrulline at position 3; biotin at the C-terminus).
T2 construct: Immobilized on streptavidin biosensors (Octet RED96); also called H4-derived peptide; N-terminal histone 4 peptide
T2 peptide: SGXGKGGKGLGK
The test is described as above. On the procedure: as §3, §4
In the case of B3, the binding result is “binds”.

As for B4, the binding result was “binds”.

B5: the binding result is “binds”.

With B6, the binding result is reported as “binds”.

Regarding B7, the binding result is on record as “binds”.

For the molecule B8, the binding result is reported as “binds”.

As to B9, the binding result is “binds”.

For B10, the binding result is “binds”.

On to B11, for which the binding result was “binds”.

As for B12, the binding result was “binds”.

As for B13, the binding result is “binds”.

For B14, the binding result is “binds”.

With B15, the binding result was “binds”.

For the molecule B16, the binding result is recorded as “binds”.

On to B17, for which the binding result is recorded as “binds”.

Turning to B18, the binding result is reported as “binds”.

For the molecule B19, the binding result is “binds”.

Turning to B20, the binding result is given as “binds”.

On to B21, for which the binding result was “binds”.

Consider B22, for which the binding result is on record as “binds”.

In the next test the target is T1, citrullinated histone 2A-derived …. Briefly: CMC ELISA, biotinylated peptide on NeutrAvidin-coated plate, anti-human-HRP, OD 450 nm, interpolated on the hMQ22.101f/g calibration curve. On the procedure:
as §1, §2
B23: the binding result is “binds”.

As for B24, the binding result was “binds”.

Turning to B25, the binding result is given as “binds”.

With B26, the binding result is given as “binds”.

The record behind these values is patent US20260176342A1 (CITRYLL B V, published 2026).
